Molecular target: T1, purified TRIB2 protein (ab186094, Abcam) (Homo sapiens (Human), UniProt Q92519)
T1 chain: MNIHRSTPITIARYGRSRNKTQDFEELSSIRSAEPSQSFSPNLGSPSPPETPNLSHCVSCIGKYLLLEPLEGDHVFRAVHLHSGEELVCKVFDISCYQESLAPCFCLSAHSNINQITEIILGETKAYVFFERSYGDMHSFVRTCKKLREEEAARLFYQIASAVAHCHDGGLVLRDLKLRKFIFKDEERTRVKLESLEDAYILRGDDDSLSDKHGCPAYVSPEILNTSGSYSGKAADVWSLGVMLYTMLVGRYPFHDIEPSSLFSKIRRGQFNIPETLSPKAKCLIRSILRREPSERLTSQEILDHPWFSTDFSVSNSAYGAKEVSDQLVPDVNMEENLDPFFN
Experiment: in vitro reciprocal co-IP

B1: purified PCBP2 protein (H00005094-P01, Abnova) (protein)
chain: MDTGVIEGGLNVTLTIRLLMHGKEVGSIIGKKGESVKKMREESGARINISEGNCPERIITLAGPTNAIFKAFAMIIDKLEEDISSSMTNSTAASRPPVTLRLVVPASQCGSLIGKGGCKIKEIRESTGAQVQVAGDMLPNSTERAITIAGIPQSIIECVKQICVVMLETLSQSPPKGVTIPYRPKPSSSPVIFAGGQDRYSTGSDSASFPHTTPSMCLNPDLEGPPLEAYTIQGQYAIPQPDLTKLHQLAMQQSHFPMTHGNTGFSGIESSSPEVKGYWGLDASAQTTSHELTIPNDLIGCIIGRQGAKINEIRQMSGAQIKIANPVEGSTDRQVTITGSAASISLAQYLINVRLSSETGGMGSS
Q: Does B1 bind?
A: Result: binds

— publication PMC7791120 (2021)
